Measured values reported in the supplement of paper PMC10724198.
± gives the standard deviation of the averaged measurements.

System: Saccharomyces cerevisiae
Assay: protein stability index of tFT-peptide fusion (C-terminal peptide) (PSI (0-1 scale)); higher = more stable (slower turnover)
Conditions: temperature: 30 C
Experimental: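 MPS profiling in S. cerevisiae of the yeast C-terminome library: the last 12 aa of each annotated ORF are fused to the C-terminus of a sfGFP-mCherry timer, after a GGGS linker. Cells are FACS-sorted into 8 mCherry/sfGFP bins and deep-sequenced. PSI runs from 0 (unstable) to 1 (stable); wild type and das1Δ backgrounds, two technical replicates each.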

[1] = genetic background: das1 deletion

Sequence	protein stability index [1]	protein stability index (genetic background: wild type)
EKVTNTLSSLKF [LTV1 C-terminal 12 aa]	0.694 ± 0.0074	0.669 ± 0.017
ELAKKWKQEQAL [CLF1 C-terminal 12 aa]	0.676 ± 0.011	0.667 ± 0.011
ELFTILHDLTAA [TPS3 C-terminal 12 aa]	0.718 ± 0.086	0.6612 ± 0.005
ELPSYKKTSKQN [PSG1 C-terminal 12 aa]	0.722 ± 0.03	0.701 ± 0.077
ELSMIMEHFSQQ [RPS12 C-terminal 12 aa]	0.72 ± 0.02	0.7056 ± 0.0036
ELTLFLSYKSYS [YGR045C C-terminal 12 aa]	0.683 ± 0.02	0.64 ± 0.017
ELTRLVDSKRKR [HFA1 C-terminal 12 aa]	0.717 ± 0.045	0.667 ± 0.011
ELWTLQAPELNL [YKL036C C-terminal 12 aa]	0.72 ± 0.021	0.702 ± 0.04
ENAGKIFFNETE [YHR213W-A C-terminal 12 aa]	0.733 ± 0.029	0.684 ± 0.033
ENKPDSTFGIIL [YOR170W C-terminal 12 aa]	0.718 ± 0.019	0.749 ± 0.11
ENLITILDSNYI [ISR1 C-terminal 12 aa]	0.74 ± 0.0095	0.696 ± 0.01
ENLTQKKKQSAN [PCT1 C-terminal 12 aa]	0.703 ± 0.0058	0.65 ± 0.011
ENRPGPYEFRET [FMP41 C-terminal 12 aa]	0.6916 ± 0.0065	0.779 ± 0.053
EPKEIVDGKVLK [CAM1 C-terminal 12 aa]	0.692 ± 0.021	0.708 ± 0.034
EPTLKLSNIYRQ [YBR174C C-terminal 12 aa]	0.7092 ± 0.0033	0.71982 ± 0.00048
EQDAILLKKHIS [NAT5 C-terminal 12 aa]	0.714 ± 0.033	0.3 ± 0.029
ERAIKTVRYLLY [YOL079W C-terminal 12 aa]	0.678 ± 0.008	0.631 ± 0.021
ERKLSTKKVSVE [YHR078W C-terminal 12 aa]	0.707 ± 0.052	0.7 ± 0.032
ERTKLREKLEII [PXA1 C-terminal 12 aa]	0.7064 ± 0.0059	0.677 ± 0.077
ESDLAAARSEDK [VTH1 C-terminal 12 aa]	0.7237 ± 0.0031	0.659 ± 0.012
ESEKELYNATRA [NHP6B C-terminal 12 aa]	0.68817 ± 0.00058	0.716 ± 0.034

Sequence	protein stability index [1]	protein stability index (genetic background: wild type)
ESNSALDFTRLA [SSU1 C-terminal 12 aa]	0.707 ± 0.025	0.712 ± 0.059
ESQPAPKEAPDY [SNP1 C-terminal 12 aa]	0.674 ± 0.028	0.702 ± 0.022
ETLEAETVKIDI [POL31 C-terminal 12 aa]	0.69571 ± 0.00029	0.7012 ± 0.0013
EVDDDGEIEGLF [MIS1 C-terminal 12 aa]	0.7072 ± 0.0051	0.684 ± 0.022
EVDIGLYNCADY [ADE4 C-terminal 12 aa]	0.714 ± 0.05	0.667 ± 0.02
EVISSYQIDMIV [HIM1 C-terminal 12 aa]	0.657 ± 0.013	0.62 ± 0.0077
EVLHEWKSHINQ [BIO3 C-terminal 12 aa]	0.743 ± 0.017	0.6763 ± 0.0056
EVVRFYTIEAKL [AAT2 C-terminal 12 aa]	0.771 ± 0.032	0.724 ± 0.085
EWEEKQGMDFVR [GPN2 C-terminal 12 aa]	0.7083 ± 0.0027	0.685 ± 0.0095
EYSWEKPKKLEF [SAM2 C-terminal 12 aa]	0.7075 ± 0.0037	0.698 ± 0.035
FALVLAYMRLLT [FMP32 C-terminal 12 aa]	0.4219 ± 0.0012	0.237 ± 0.012
FDELFISTEVEL [TCA17 C-terminal 12 aa]	0.718 ± 0.018	0.6851 ± 0.0011
FDVIKECQTLSN [PUG1 C-terminal 12 aa]	0.683 ± 0.037	0.6484 ± 0.0017
FELAKVSFDNKR [YKR104W C-terminal 12 aa]	0.736 ± 0.031	0.707 ± 0.095
FERNYFPYSAVY [CLG1 C-terminal 12 aa]	0.6077 ± 0.0039	0.608 ± 0.018
FEYEPPKFNLSE [GTB1 C-terminal 12 aa]	0.689 ± 0.025	0.659 ± 0.037
FFSFIITIPFMV [YNL146W C-terminal 12 aa]	0.305 ± 0.01	0.2042 ± 0.0015
FFTTCTIGCYDA [BUD7 C-terminal 12 aa]	0.6871 ± 0.0048	0.6861 ± 0.0047
FGKRRFFYRDLA [YPR146C C-terminal 12 aa]	0.6901 ± 0.0029	0.693 ± 0.014
FHDWFIRQFVSN [SNO1 C-terminal 12 aa]	0.73 ± 0.0093	0.321 ± 0.034
FIWQNVLMWLMG [YIF1 C-terminal 12 aa]	0.7 ± 0.011	0.54 ± 0.017

Sequence	protein stability index [1]	protein stability index (genetic background: wild type)
FKKSYKGVSKNL [MGM1 C-terminal 12 aa]	0.704 ± 0.013	0.695 ± 0.022
FLGIELHAFFVS [YOL035C C-terminal 12 aa]	0.6355 ± 0.0029	0.635 ± 0.058
FLPFFLRFLCIN [YML116W-A C-terminal 12 aa]	0.618 ± 0.021	0.206 ± 0.021
FQVVGKKKGKRF [SYH1 C-terminal 12 aa]	0.715 ± 0.009	0.688 ± 0.049
FRGKRYHTIKRQ [MSS51 C-terminal 12 aa]	0.709 ± 0.0045	0.643 ± 0.035
FRLQEEQTNMRS [MSM1 C-terminal 12 aa]	0.713 ± 0.02	0.758 ± 0.02
FRQSWQIDIGTW [YAL037C-B C-terminal 12 aa]	0.7097 ± 0.0042	0.676 ± 0.017
FRVVLNAQLNIQ [YOR108C-A C-terminal 12 aa]	0.69 ± 0.036	0.674 ± 0.006
FSAVSSWLSFIF [YNL046W C-terminal 12 aa]	0.772 ± 0.033	0.725 ± 0.013
FSCHSFEYLARR [YDR401W C-terminal 12 aa]	0.701 ± 0.013	0.677 ± 0.047
FSDLFSYSKSLV [ENT5 C-terminal 12 aa]	0.705 ± 0.04	0.744 ± 0.013
FSSSRDDISFDI [DRS2 C-terminal 12 aa]	0.7 ± 0.023	0.664 ± 0.0014
FTDDSGTIKQEE [CMR1 C-terminal 12 aa]	0.713 ± 0.0073	0.703 ± 0.026
FTNEIINKLSTM [IDH1 C-terminal 12 aa]	0.692 ± 0.052	0.5514 ± 0.0019
FTVKANSQSESA [GRX7 C-terminal 12 aa]	0.6758 ± 0.0034	0.694 ± 0.027
FVFVRYFNYADS [YCR081C-A C-terminal 12 aa]	0.631 ± 0.023	0.622 ± 0.011
FVLKCIKDMYAK [IRC25 C-terminal 12 aa]	0.682 ± 0.018	0.681 ± 0.017
FVSSDPGLTQWL [HNT2 C-terminal 12 aa]	0.745 ± 0.014	0.713 ± 0.0078
FVVKEGLLKNRK [GTF1 C-terminal 12 aa]	0.701 ± 0.027	0.7 ± 0.024
FYDLWDAYEDDS [GDB1 C-terminal 12 aa]	0.751 ± 0.028	0.704 ± 0.013
FYPVTSEFSKNK [HOB2 C-terminal 12 aa]	0.7 ± 0.039	0.767 ± 0.013

Sequence	protein stability index [1]	protein stability index (genetic background: wild type)
GAGAFAVGALLL [NCW2 C-terminal 12 aa]	0.7034 ± 0.0019	0.687 ± 0.026
GALALGLISYLL [FIT2 C-terminal 12 aa]	0.695 ± 0.007	0.686 ± 0.014
GALPTTDPLFQW [YJL043W C-terminal 12 aa]	0.7371 ± 0.0031	0.704 ± 0.0071
GAPSLYSYLLCL [IRC2 C-terminal 12 aa]	0.684 ± 0.0082	0.487 ± 0.019
GAVVAGAAALLL [TIP1 C-terminal 12 aa]	0.729 ± 0.024	0.709 ± 0.032
GCGEDLKKDILS [DOP1 C-terminal 12 aa]	0.71 ± 0.017	0.668 ± 0.024
GCVLGKLGYLKM [RAD33 C-terminal 12 aa]	0.719 ± 0.024	0.619 ± 0.07
GDDESRPRKMRR [BMS1 C-terminal 12 aa]	0.678 ± 0.0091	0.674 ± 0.012
GDDPYAEYFQDF [TPK2 C-terminal 12 aa]	0.735 ± 0.01	0.717 ± 0.039
GEAVPEPVEEES [SEC27 C-terminal 12 aa]	0.698 ± 0.013	0.691 ± 0.043
GFRPECLYYYIK [YPR016W-A C-terminal 12 aa]	0.5801 ± 0.0036	0.564 ± 0.024
GGPPKVNKDIIS [HAT2 C-terminal 12 aa]	0.708 ± 0.035	0.6995 ± 0.006
GIGFFAVCFERD [RCM1 C-terminal 12 aa]	0.6906 ± 0.0028	0.664 ± 0.012
GKCTSSKFKLSS [KRE6 C-terminal 12 aa]	0.71 ± 0.026	0.619 ± 0.024
GKNGARLSEIGW [SNZ2 C-terminal 12 aa]	0.7224 ± 0.0061	0.691 ± 0.025
GKNKKKSKHSKK [PRP43 C-terminal 12 aa]	0.702 ± 0.057	0.651 ± 0.0029
GLDPEELEDLVT [PDS1 C-terminal 12 aa]	0.688 ± 0.011	0.7032 ± 0.0028
GLEFVASRSASS [MDH2 C-terminal 12 aa]	0.692 ± 0.014	0.729 ± 0.033
GLNKNMLKKIIK [YPR084W C-terminal 12 aa]	0.715 ± 0.032	0.668 ± 0.03
